Source: patent US8734776B2 (ZymoGenetics, Inc., priority 2003, dated 2014)
Like-named read-outs stand apart in the source and are kept apart here.

Assays:
[1] = test system: encephelomyocarditis virus; assay: Antiviral assay: cytopathic effect in HeLa cells; format: cell-based, human
[2] = test system: EMCV; assay: EMCV antiviral dye-uptake assay in HepG2 cells; format: cell-based, human; details: dye-uptake OD570
[3] = test system: human marrow mononuclear cells; assay: Bone marrow expansion assay (Alamar Blue); format: cell-based
[4] = test system: BVDV; assay: BVDV CPE inhibition assay in MDBK cells; format: cell-based; details: MDBK bovine kidney cells
Description: IFNα and RIBAVIRIN® were used as positive controls. Test sample were added at the time of viral infection.

[5] = test system: ISG gene expression (OAS, Pkr, Mx1); assay: ISG gene induction in liver, spleen and blood of injected mice; format: in vivo, mouse; details: for OAS (24 hr): mice, expression relative to internal HPRT; for OAS- 1 hr: 1 hr after single injection of 250 μg i.v.; for OAS- 1 hr / OAS-6 hr / OAS-24 hr / OAS-48 hr: average of 5 animals; for OAS-6 hr: 6 hr after single injection of 250 μg i.v.; for OAS-24 hr: 24 hr after single injection of 250 μg i.v.; for OAS-48 hr: 48 hr after single injection of 250 μg i.v.
Description: In addition, E. coli derived IL-29 was also tested in in vivo assays as described above using MetIL-29C172S-PEG and MetIL-29-PEG. At various time points and at different doses, ISG gene induction was measured in the blood, spleen and livers of the mice.
Mice were sacrificed at various time points (1 hr-48 hr). Spleens and livers were isolated from mice, and RNA was isolated. RNA was also isolated from the blood cells. The cells were pelleted and RNA isolated from pellets using RNAEasy®-kit (Qiagen). RNA was treated with DNase (Amicon) to rid RNA of any contaminating DNA. cDNA was generated using Perkin-Elmer RT mix (Perkin-Elmer). ISG gene induction was measured by real-time PCR using primers and probes specific for mouse OAS, Pkr and M×1. To obtain quantitative data, HPRT real-time PCR was duplexed with ISG PCR. A standard curve was calculated using known amounts of IFN-stimulated mouse PBLs. All data are shown as expression relative to internal HPRT expression.
Results shown are fold expression relative to HPRT gene expression. […] The data shown is the average expression from 5 different animals/group.
Data shown is fold expression over HPRT expression from livers of mice. Similar data was obtained from blood and spleens of mice.

[6] = test system: parainfluenza virus; format: cell-based; details: MA-104 cells
[7] = test system: respiratory syncytial virus; format: cell-based; details: MA-104 cells
[8] = test system: rhino virus; format: cell-based
[9] = test system: coxsackie virus; format: cell-based; details: Coxsackie B4 virus, KB cells
[10] = test system: influenza virus; format: cell-based; details: Influenza (type A [H3N2])
[11] = test system: vaccinia virus; format: cell-based; details: Vero cells
[12] = test system: dengue virus; format: cell-based; details: Vero cells
[13] = test system: venezuelan equine encephalitis virus; format: cell-based; details: Vero cells
[14] = test system: pichinde virus; format: cell-based
[15] = test system: polio virus; format: cell-based; details: Vero cells
[16] = test system: adenovirus; format: cell-based; details: A549 cells
[17] = test system: respiratory syncytial virus; format: cell-based; details: MA-104 cells; remark: listed apart in the source
[18] = test system: rhino virus; format: cell-based; remark: listed apart in the source
[19] = test system: coxsackie virus; format: cell-based; details: Coxsackie B4 virus, KB cells; remark: listed apart in the source
[20] = test system: influenza virus; format: cell-based; details: Influenza (type A [H3N2]); remark: listed apart in the source
[21] = test system: vaccinia virus; format: cell-based; details: Vero cells; remark: listed apart in the source
[22] = test system: dengue virus; format: cell-based; details: Vero cells; remark: listed apart in the source
[23] = test system: venezuelan equine encephalitis virus; format: cell-based; details: Vero cells; remark: listed apart in the source
[24] = test system: pichinde virus; format: cell-based; remark: listed apart in the source
[25] = test system: polio virus; format: cell-based; details: Vero cells; remark: listed apart in the source
[26] = test system: BCBL-1 cells
[27] = test system: OAS; assay: OAS activity in serum and plasma of mice (RIA)
[28] = test system: HHV-8; assay: HHV-8 replication in BCBL-1 cells (TaqMan PCR)
[29] = Maden-Darby Canine Kidney cells

B1: IL-29: human IL-29, previously designated zcyto21, SEQ ID NO:4 (protein, listed as Homo sapiens)
chain: MAAAWTVVLVTLVLGLAVAGPVPTSKPTTTGKGCHIGRFKSLSPQELASFKKARDALEESLKLKNWSCSSPVFPGNWDLRLLQVRERPVALEAELALTLKVLEAAAGPALEDVLDQPLHTLHHILSQLQACIQPQPTAGPRPRGRLHHWLHRLQEAPKKESAGCLEASVTFNLFRLLTRDLKYVADGNLCLRTSTHPEST
modifications: SIGNAL (1)...(19)
[1]; relative CM concentration .008X
  Percentage Cytopathic Effect: 56%
[1]; relative CM concentration .0156X
  Percentage Cytopathic Effect: 31%
[1]; relative CM concentration .0325X
  Percentage Cytopathic Effect: 10%
[1]; relative CM concentration .0625X
  Percentage Cytopathic Effect: 10%
[1]; relative CM concentration .125X
  Percentage Cytopathic Effect: 5%
[1]; relative CM concentration .25X
  Percentage Cytopathic Effect: 0%
[1]; relative CM concentration .5X
  Percentage Cytopathic Effect: 0%
[2]
  EC50 antiviral activity: 0.0006 mg/L
[3]; in the presence of IL-2 or IL-15
  bone marrow cell expansion: small inhibition
[3]; in the presence of IL-3, IL-4, IL-5, IL-7, IL-10, IL-12, IL-21 or no added cytokine
  expansion of bone marrow cells: no significant effect
[4]
  IC50 inhibition of cell death induced by BVDV: 0.19 mg/L
[5]; C57BL/6 mice
  time of peak expression of ISGs after injection: 1 to 6 h
[5]; C57BL/6 mice, i.p or i.v, 10 μg-250 μg
  ISG gene expression (OAS, Pkr, Mx1) in the livers, spleen and blood of mice: induced ISG gene expression
[5]; injection 10 μg
  OAS (24 hr): 3.7
[5]; injection 50 μg
  OAS (24 hr): 4.2
[5]; injection 250 μg
  OAS (24 hr): 6
[5]; mouse blood
  OAS- 1 hr: 12 fold expression relative to HPRT gene expression
  OAS-6 hr: 18 fold expression relative to HPRT gene expression
  OAS-24 hr: 11 fold expression relative to HPRT gene expression
  OAS-48 hr: 10 fold expression relative to HPRT gene expression
[5]; mouse liver
  OAS- 1 hr: 2.5 fold expression relative to HPRT gene expression
  OAS-6 hr: 4 fold expression relative to HPRT gene expression
  OAS-24 hr: 2.5 fold expression relative to HPRT gene expression
  OAS-48 hr: 2.8 fold expression relative to HPRT gene expression
[5]; mouse spleen
  OAS- 1 hr: 4 fold expression relative to HPRT gene expression
  OAS-6 hr: 6 fold expression relative to HPRT gene expression
  OAS-24 hr: 3.2 fold expression relative to HPRT gene expression
  OAS-48 hr: 3.2 fold expression relative to HPRT gene expression
[6]
  EC50 Visual: >10 mg/L
  IC50 Visual: >10 mg/L
[7]
  EC50 Visual: >10 mg/L
  IC50 Visual: >10 mg/L
[8]; Rhino 2, KB cells
  EC50 Visual: >10 mg/L
  IC50 Visual: >10 mg/L
[8]; Rhino 9, HeLa cells
  EC50 Visual: >10 mg/L
  IC50 Visual: >10 mg/L
[9]
  EC50 Visual: >10 mg/L
  IC50 Visual: >10 mg/L
[10]; [29]
  EC50 Visual: >10 mg/L
  IC50 Visual: >10 mg/L
[10]; Vero cells
  EC50 Visual: >10 mg/L
  IC50 Visual: >10 mg/L
[11]
  EC50 Visual: >10 mg/L
  IC50 Visual: >10 mg/L
[12]
  EC50 Visual: 0.032 mg/L
  IC50 Visual: >10 mg/L
[13]
  EC50 Visual: 0.012 mg/L
  IC50 Visual: >10 mg/L
[14]
  EC50 Visual: >10 mg/L
  IC50 Visual: >10 mg/L
[15]
  EC50 Visual: >10 mg/L
  IC50 Visual: >10 mg/L
[16]
  EC50 NR: >10 mg/L
  IC50 NR: >10 mg/L
[17]
  EC50 NR: >10 mg/L
  IC50 NR: >10 mg/L
[18]; Rhino 2, KB cells
  EC50 NR: >10 mg/L
  IC50 NR: >10 mg/L
[18]; Rhino 9, HeLa cells
  EC50 NR: 0.982 mg/L
  IC50 NR: >10 mg/L
[19]
  EC50 NR: >10 mg/L
  IC50 NR: >10 mg/L
[20]; [29]
  EC50 NR: >10 mg/L
  IC50 NR: >10 mg/L
[20]; Vero cells
  EC50 NR: 2 mg/L
  IC50 NR: >10 mg/L
[21]
  EC50 NR: >10 mg/L
  IC50 NR: >10 mg/L
[22]
  EC50 NR: 0.05 mg/L
  IC50 NR: >10 mg/L
[23]
  EC50 NR: 0.05 mg/L
  IC50 NR: >10 mg/L
[24]
  EC50 NR: >10 mg/L
  IC50 NR: >10 mg/L
[25]
  EC50 NR: >10 mg/L
  IC50 NR: >10 mg/L
[26]
  TC50: > 10 mg/L
[27]; C57BL/6 mice, i.v, 10 μg-250 μg
  OAS activity in the serum and plasma of mice: induced OAS activity
[27]; mouse plasma, 250 μg i.v., 1 hr
  OAS-1 hr (OAS activity): 80 pmol/dL
[27]; mouse plasma, 250 μg i.v., 6 hr
  OAS-6 hr (OAS activity): 80 pmol/dL
[27]; mouse plasma, 250 μg i.v., 24 hr
  OAS-24 hr (OAS activity): 180 pmol/dL
[27]; mouse plasma, 250 μg i.v., 48 hr
  OAS-48 hr (OAS activity): 200 pmol/dL
[28]
  TI (TC50/IC50): > 1.85
[28]; extracellular HHV-8 DNA
  IC50 HHV-8 viral replication: 6.5 mg/L
